Assay results from US20020123056A1.

Target: PKB-sub peptide (GSK3 consensus peptide) …
Test: cell-based or functional assay

kinase activity, 32P incorporation; GST-SGK2 from Hi5 cells treated with Calyculin A: 92500 CCPM1
kinase activity, 32P incorporation; GST-SGK2 from Hi5 cells treated with Microcysteine: 217 CCPM1
kinase activity, 32P incorporation; GST-SGK2 from Hi5 cells treated with Okadaic Acid: 132000 CCPM1
kinase activity, 32P incorporation; GST-SGK2 from untreated Hi5 cells: 979 CCPM1
Substance: GST-SGK2 fusion protein (human SGK2 with N-terminal Glutathione S-transferase tag, expressed in Hi5 insect cells) (from UniProt Q9HBY8 1-367) (enzyme)
